Drawing on the Human Domainome abundance scans (Beltran et al. 2025), this text covers abundance fitness for 34 variants.

± gives the uncertainty stated by the source.

B1: GA-binding protein alpha chain, residues 172 to 250; numbered along this chain, Q06546 (parent)
chain: GYRKEQERLGIPYDPIQWSTDQVLHWVVWVMKEFSMTDIDLTTLNISGRELCSLNQEDFFQRVPRGEILWSHLELLRKY

The variants in this data set derive from B1. Put plainly: abundance fitness (aPCA) (normalised: wild type 0, dead -1); higher = more abundant; growth selection in yeast, the domain comes from the species named. The following applies: Homo sapiens.
Consider GYRWEQERLGIPYDPIQWSTDQVLHWVVWVMKEFSMTDIDLTTLNISGRELCSLNQEDFFQRVPRGEILWSHLELLRKY [K4W], for which the abundance fitness was -0.12 ± 0.041.
With GYRVEQERLGIPYDPIQWSTDQVLHWVVWVMKEFSMTDIDLTTLNISGRELCSLNQEDFFQRVPRGEILWSHLELLRKY [K4V] the figure was -0.045 ± 0.038; with GYRYEQERLGIPYDPIQWSTDQVLHWVVWVMKEFSMTDIDLTTLNISGRELCSLNQEDFFQRVPRGEILWSHLELLRKY [K4Y], -0.1 ± 0.073; with GYRTEQERLGIPYDPIQWSTDQVLHWVVWVMKEFSMTDIDLTTLNISGRELCSLNQEDFFQRVPRGEILWSHLELLRKY [K4T], -0.067 ± 0.1.
With GYRKEAERLGIPYDPIQWSTDQVLHWVVWVMKEFSMTDIDLTTLNISGRELCSLNQEDFFQRVPRGEILWSHLELLRKY [Q6A] the figure was -0.076 ± 0.041; with GYRKEMERLGIPYDPIQWSTDQVLHWVVWVMKEFSMTDIDLTTLNISGRELCSLNQEDFFQRVPRGEILWSHLELLRKY [Q6M], -0.015 ± 0.09; with GYRKEDERLGIPYDPIQWSTDQVLHWVVWVMKEFSMTDIDLTTLNISGRELCSLNQEDFFQRVPRGEILWSHLELLRKY [Q6D], -0.678 ± 0.31.
With GYRKESERLGIPYDPIQWSTDQVLHWVVWVMKEFSMTDIDLTTLNISGRELCSLNQEDFFQRVPRGEILWSHLELLRKY [Q6S], the abundance fitness was -0.221 ± 0.042.
Turning to GYRKEVERLGIPYDPIQWSTDQVLHWVVWVMKEFSMTDIDLTTLNISGRELCSLNQEDFFQRVPRGEILWSHLELLRKY [Q6V], the abundance fitness is -0.069 ± 0.036.
With GYRKEPERLGIPYDPIQWSTDQVLHWVVWVMKEFSMTDIDLTTLNISGRELCSLNQEDFFQRVPRGEILWSHLELLRKY [Q6P] the figure was -0.739 ± 0.12; with GYRKEIERLGIPYDPIQWSTDQVLHWVVWVMKEFSMTDIDLTTLNISGRELCSLNQEDFFQRVPRGEILWSHLELLRKY [Q6I], 0.078 ± 0.091; with GYRKEFERLGIPYDPIQWSTDQVLHWVVWVMKEFSMTDIDLTTLNISGRELCSLNQEDFFQRVPRGEILWSHLELLRKY [Q6F], -0.184 ± 0.069.
In the case of GYRKEHERLGIPYDPIQWSTDQVLHWVVWVMKEFSMTDIDLTTLNISGRELCSLNQEDFFQRVPRGEILWSHLELLRKY [Q6H], the abundance fitness was -0.852 ± 0.11.
With GYRKENERLGIPYDPIQWSTDQVLHWVVWVMKEFSMTDIDLTTLNISGRELCSLNQEDFFQRVPRGEILWSHLELLRKY [Q6N] the figure was -0.844 ± 0.2; with GYRKETERLGIPYDPIQWSTDQVLHWVVWVMKEFSMTDIDLTTLNISGRELCSLNQEDFFQRVPRGEILWSHLELLRKY [Q6T], -0.172 ± 0.054.
Next, GYRKEKERLGIPYDPIQWSTDQVLHWVVWVMKEFSMTDIDLTTLNISGRELCSLNQEDFFQRVPRGEILWSHLELLRKY [Q6K]: -0.96 ± 0.13.
For GYRKECERLGIPYDPIQWSTDQVLHWVVWVMKEFSMTDIDLTTLNISGRELCSLNQEDFFQRVPRGEILWSHLELLRKY [Q6C], the abundance fitness is -0.118 ± 0.067.
For the variant GYRKEEERLGIPYDPIQWSTDQVLHWVVWVMKEFSMTDIDLTTLNISGRELCSLNQEDFFQRVPRGEILWSHLELLRKY [Q6E], the abundance fitness is -0.26 ± 0.053.
Consider GYRKELERLGIPYDPIQWSTDQVLHWVVWVMKEFSMTDIDLTTLNISGRELCSLNQEDFFQRVPRGEILWSHLELLRKY [Q6L], for which the abundance fitness was determined as 0.037 ± 0.036.
Take GYRKEWERLGIPYDPIQWSTDQVLHWVVWVMKEFSMTDIDLTTLNISGRELCSLNQEDFFQRVPRGEILWSHLELLRKY [Q6W]: the abundance fitness was -0.498 ± 0.071.
On to GYRKEQECLGIPYDPIQWSTDQVLHWVVWVMKEFSMTDIDLTTLNISGRELCSLNQEDFFQRVPRGEILWSHLELLRKY [R8C], for which the abundance fitness was -0.355 ± 0.064.
For the variant GYRKEQEKLGIPYDPIQWSTDQVLHWVVWVMKEFSMTDIDLTTLNISGRELCSLNQEDFFQRVPRGEILWSHLELLRKY [R8K], the abundance fitness is -0.024 ± 0.064.
Next, GYRKEQEGLGIPYDPIQWSTDQVLHWVVWVMKEFSMTDIDLTTLNISGRELCSLNQEDFFQRVPRGEILWSHLELLRKY [R8G]: -0.363 ± 0.036; GYRKEQELLGIPYDPIQWSTDQVLHWVVWVMKEFSMTDIDLTTLNISGRELCSLNQEDFFQRVPRGEILWSHLELLRKY [R8L]: -0.06 ± 0.035; GYRKEQENLGIPYDPIQWSTDQVLHWVVWVMKEFSMTDIDLTTLNISGRELCSLNQEDFFQRVPRGEILWSHLELLRKY [R8N]: -0.191 ± 0.12.
With GYRKEQETLGIPYDPIQWSTDQVLHWVVWVMKEFSMTDIDLTTLNISGRELCSLNQEDFFQRVPRGEILWSHLELLRKY [R8T] the figure was -0.117 ± 0.064; with GYRKEQEDLGIPYDPIQWSTDQVLHWVVWVMKEFSMTDIDLTTLNISGRELCSLNQEDFFQRVPRGEILWSHLELLRKY [R8D], -0.185 ± 0.099; with GYRKEQEMLGIPYDPIQWSTDQVLHWVVWVMKEFSMTDIDLTTLNISGRELCSLNQEDFFQRVPRGEILWSHLELLRKY [R8M], -0.133 ± 0.058.
Next, GYRKEQEPLGIPYDPIQWSTDQVLHWVVWVMKEFSMTDIDLTTLNISGRELCSLNQEDFFQRVPRGEILWSHLELLRKY [R8P]: -0.596 ± 0.07; GYRKEQEFLGIPYDPIQWSTDQVLHWVVWVMKEFSMTDIDLTTLNISGRELCSLNQEDFFQRVPRGEILWSHLELLRKY [R8F]: -0.368 ± 0.1.
Take GYRKEQEELGIPYDPIQWSTDQVLHWVVWVMKEFSMTDIDLTTLNISGRELCSLNQEDFFQRVPRGEILWSHLELLRKY [R8E]: the abundance fitness was -0.054 ± 0.052.
Regarding GYRKEQEILGIPYDPIQWSTDQVLHWVVWVMKEFSMTDIDLTTLNISGRELCSLNQEDFFQRVPRGEILWSHLELLRKY [R8I], the abundance fitness was -0.222 ± 0.1.
As to GYRKEQEHLGIPYDPIQWSTDQVLHWVVWVMKEFSMTDIDLTTLNISGRELCSLNQEDFFQRVPRGEILWSHLELLRKY [R8H], the abundance fitness is -0.21 ± 0.1.
Turning to GYRKEQEALGIPYDPIQWSTDQVLHWVVWVMKEFSMTDIDLTTLNISGRELCSLNQEDFFQRVPRGEILWSHLELLRKY [R8A], the abundance fitness is -0.056 ± 0.035.
